# According to patent publication US20050221422:
# T1: 4-GalNAc-HP (VPST(GalNAc)PPTPSPSTPPTPSPS), human IgA1 hinge peptide with GalNAc on the 4th residue
# T1 chain: VPSTPPTPSPSTPPTPSPS
# T2: 11-GalNAc-HP-Cy5 (VPSTPPTPSPS(GalNAc)TPPTPSPS), human IgA1 hinge peptide with GalNAc on the 11th residue, Cy5-labelled
# T2 chain: VPSTPPTPSPSTPPTPSPS
# B1: FLAG tagged C1Gal-T3 fusion protein (C1Gal-T3 recombinant enzyme from pFLAG-C1Gal-T3, secreted by COS-1 cells) (protein)
# chain: HIRHRGQTQDHEHHHLRPPNRNDFLNTSKVILLELSKSIRVFCIIFGESEDESYWAVLKETWTKHCDKAELYDTKNDNLFNIESNDRWVQMRTAYKYVFEKYGDNYNWFFLALPTTFAVIENLKYLLFTRDASQPFYLGHTVIFGDLEYVTVEGGIVLSRELMKRLNRLLDNSETCADQSVIWKLSEDKQLAICLKYAGVHAENAEDYEGRDVFNTKPIAQLIEEALSNNPQQVVEGCCSDMAITFNGLTPQKMEVMMYGLYRLRAFGHYFNDTLVFLPPVGSEND
# B2: C1Gal-T2 (entire ORF expressed in LSC cells, LSC-C1Gal-T2 enzyme source) (protein)
# chain: MLSESSSFLKGVMLGSIFCALITMLGHIRIGHGNRMHHHEHHHLQAPNKEDILKISEDERMELSKSFRVYCIILVKPKDVSLWAAVKETWTKHCDKAEFFSSENVKVFESINMDTNDMWLMMRKAYKYAFDKYRDQYNWFFLARPTTFAIIENLKYFLLKKDPSQPFYLGHTIKSGDLEYVGMEGGIVLSVESMKRLNSLLNIPEKCPEQGGMIWKISEDKQLAVCLKYAGVFAENAEDADGKDVFNTKSVGLSIKEAMTYHPNQVVEGCCSDMAVTFNGLTPNQMHVMMYGVYRLRAFGHIFNDALVFLPPNGSDND
# Assays:
# [1] = biological target: T1, 4-GalNAc-HP …
# [2] = biological target: various GalNAc α1-peptides
# [3] = biological target: T2, 11-GalNAc-HP-Cy5 …
Protein,galactose transferring activity [1],galactosyltransferase activity on acceptor substrates [2],HPLC of the galactose transfer reaction product [3],"β1,3-galactosidase treatment of the reaction product, HPLC [3]"
B1,galactose transferring activity could be confirmed for 4-GalNAc-HP,–,–,–
B2,–,the above experiment was repeated using various GalNAc α1-peptides as acceptor substrates. This resulted in similar reactions to that with pNp-α-GalNAc,the reaction product appeared as a new peak at 28.8 minutes,"C1Gal-T2 was verified in vitro to be a core 1 synthetase, by which galactose is transferred to the nonreducing terminal of GalNAc α1-peptide through the β1,3 bond"
